Measurements from paper PMC6242907, “Molecular basis of maintaining an oxidizing environment under anaerobiosis by soluble fumarate reductase” (Nature Communications, 2018).

Experiments:
Experiment in all cases: purified protein
Format in all cases: biochemical, Saccharomyces cerevisiae
purified protein [1] = substrate: Cc1cc2c(cc1C)N(C[C@H](O)[C@H](O)[C@H](O)CO)c1[nH]c(=O)[nH]c(=O)c1N2; conditions: printed as riboflavin, reduced in situ by excess sodium dithionite; fumarate as acceptor, anaerobic, PBS, 1 mM EDTA
purified protein [2] = substrate: Cc1cc2c(cc1C)N(C[C@H](O)[C@H](O)[C@H](O)COP(=O)(O)OP(=O)(O)OC[C@H]1O[C@@H](n3cnc4c(N)ncnc43)[C@H](O)[C@@H]1O)c1[nH]c(=O)[nH]c(=O)c1N2; conditions: printed as FAD, reduced in situ by excess sodium dithionite; fumarate as acceptor, anaerobic, PBS, 1 mM EDTA
purified protein [3] = substrate: Cc1cc2c(cc1C)N(C[C@H](O)[C@H](O)[C@H](O)COP(=O)(O)O)c1[nH]c(=O)[nH]c(=O)c1N2; conditions: printed as FMN, reduced in situ by excess sodium dithionite; fumarate as acceptor, anaerobic, PBS, 1 mM EDTA

B1: Osm1 (Saccharomyces cerevisiae S288C) (protein)
chain: SMKQPVVVIGSGLAGLTTSNRLISKYRIPVVLLDKAASIGGNSIKASSGINGAHTDTQQNLKVMDTPELFLKDTLHSAKGRGVPSLMDKLTKESKSAIRWLQTEFDLKLDLLAQLGGHSVPRTHRSSGKLPPGFEIVQALSKKLKDISSKDSNLVQIMLNSEVVDIELDNQGHVTGVVYMDENGNRKIMKSHHVVFCSGGFGYSKEMLKEYSPNLIHLPTTNGKQTTGDGQKILSKLGAELIDMDQVQVHPTGFIDPNDRENNWKFLAAEALRGLGGILLHPTTGRRFTNELSTRDTVTMEIQSKCPKNDNRALLVMSDKVYENYTNNINFYMSKNLIKKVSINDLIRQYDLQTTASELVTELKSYSDVNTKDTFDRPLIINAFDKDISTESTVYVGEVTPVVHFTMGGVKINEKSQVIKKNSESVLSNGIFAAGEVSGGVHGANRLGGSSLLECVVFGKTAADNIAKLY
notes: residues 32-501, N-terminal His6 tag and thrombin site in pET28a, E. coli BL21(DE3); tag removed by trypsin for crystals
- Km (purified protein [1]): 9.3745 (±4.991) µM
- Km (purified protein [2]): 2.858 µM
- Km (purified protein [3]): 5.847 (±2.0065) µM
